Kd data for 20 molecules are collected here from patent publication US20220064329A1 (Novo Nordisk, published 2022).

T1: recombinant human activated Factor VII (FVIIa) (human, UniProt P08709 61-212; P08709 213-466, ten glutamate residues of the Gla domain may be gamma-carboxylated)
T1 construct: chains tethered by a disulfide bond; also called Factor VIIa; rFVIIa
T1 sequence 1: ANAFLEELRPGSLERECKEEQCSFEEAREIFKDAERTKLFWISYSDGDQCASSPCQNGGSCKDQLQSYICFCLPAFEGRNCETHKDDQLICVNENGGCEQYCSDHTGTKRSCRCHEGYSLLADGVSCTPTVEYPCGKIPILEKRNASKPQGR
T1 sequence 2: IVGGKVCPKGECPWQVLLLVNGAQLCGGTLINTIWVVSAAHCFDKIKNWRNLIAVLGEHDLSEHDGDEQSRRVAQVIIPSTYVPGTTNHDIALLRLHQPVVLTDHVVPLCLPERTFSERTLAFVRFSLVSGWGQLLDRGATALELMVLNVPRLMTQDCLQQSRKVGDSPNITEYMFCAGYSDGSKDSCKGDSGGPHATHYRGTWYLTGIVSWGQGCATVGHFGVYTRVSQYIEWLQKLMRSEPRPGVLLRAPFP

B1: VH SEQ ID NO 546 / VL SEQ ID NO 454 (antibody, IgG4, V domains shown)
VH: QVQLQESGPGLVEPSQTLSLTCTVSGYSITSDSAWSWIRQPPGKKLEWIGYIQYSGSTNYNPSLKSRVTISRDTSKNQFSLKLSSVTAADTAVYYCARSVNYYGNSFAVGYWGQGTSVTVSS
VL: EIVLTQSPATLSLSPGERATLSCRASQGVSDYLHWYQQKPGEAPRLLIKYASQPATGIPARFSGSGSGTDFTLTISSLEPEDFAVYYCQNGHSFPLTFGQGTKLEIK
notes: humanized 11F2; IgG4 S228P/kappa
B2: VH SEQ ID NO 546 / VL SEQ ID NO 470 (antibody, IgG4, V domains shown)
VH: QVQLQESGPGLVEPSQTLSLTCTVSGYSITSDSAWSWIRQPPGKKLEWIGYIQYSGSTNYNPSLKSRVTISRDTSKNQFSLKLSSVTAADTAVYYCARSVNYYGNSFAVGYWGQGTSVTVSS
VL: EIVLTQSPATLSLSPGERATLSCRASQGVSDYLHWYQQKPGQAPRLLIKYASQPATGIPARFSGSGSGTDFTLTISSLEPEDFAVYYCQNGHSFPLTFGQGTKLEIK
notes: as for B1
B3: VH SEQ ID NO 554 / VL SEQ ID NO 358 (antibody, IgG4, V domains shown)
VH: QVQLQESGPGLVKPSDTLSLTCAVSGYSISSDSAWSWIRQFPGKGLEWIGYIQYSGSTNYNPSLKSRVTMSVDTSKNQFSLKLSSVTALDTAVYYCARSVNYYGNSFAVGPWGQGTLVTVSS
VL: EIVLTQSPATLSLSPGERATLSCRASQGISDYLHWYQQKPGQAPRLLIKYTSQPATGIPARFSGSGSGTDFTLTISSLEPEDFAVYYCQNGHSFPLTFGQGTKLEIK
notes: as for B1
B4: VH SEQ ID NO 554 / VL SEQ ID NO 334 (antibody, IgG4, V domains shown)
VH: QVQLQESGPGLVKPSDTLSLTCAVSGYSISSDSAWSWIRQFPGKGLEWIGYIQYSGSTNYNPSLKSRVTMSVDTSKNQFSLKLSSVTALDTAVYYCARSVNYYGNSFAVGPWGQGTLVTVSS
VL: EIVLTQSPATLSLSPGERATLSCRASQGISDYLHWYQQKPGQAPRLLIKYASQPATGIPARFSGSGSGTDFTLTISSLEPEDFAVYYCQNGHSFPLTFGQGTKLEIK
notes: as for B1
B5: VH SEQ ID NO 554 / VL SEQ ID NO 342 (antibody, IgG4, V domains shown)
VH: QVQLQESGPGLVKPSDTLSLTCAVSGYSISSDSAWSWIRQFPGKGLEWIGYIQYSGSTNYNPSLKSRVTMSVDTSKNQFSLKLSSVTALDTAVYYCARSVNYYGNSFAVGPWGQGTLVTVSS
VL: EIVLTQSPATLSLSPGERATLSCRASQGISDYLHWYQQKPGQAPRLLIKYTSQPATGIPARFSGSGSGRDFTLTISSLEPEDFAVYYCQNGHSFPLTFGAGTKLELK
notes: as for B1
B6: VH SEQ ID NO 554 / VL SEQ ID NO 486 (antibody, IgG4, V domains shown)
VH: QVQLQESGPGLVKPSDTLSLTCAVSGYSISSDSAWSWIRQFPGKGLEWIGYIQYSGSTNYNPSLKSRVTMSVDTSKNQFSLKLSSVTALDTAVYYCARSVNYYGNSFAVGPWGQGTLVTVSS
VL: EIVLTQSPATLSLSPGERATLSCRASQGVSDYLHWYQQKPGQAPRLLIKYASQPATGIPARFSGSGSGTDFTLTISSLEPEDFGVYYCQNGHSFPLTFGQGTKLEIK
notes: as for B1
B7: VH SEQ ID NO 554 / VL SEQ ID NO 494 (antibody, IgG4, V domains shown)
VH: QVQLQESGPGLVKPSDTLSLTCAVSGYSISSDSAWSWIRQFPGKGLEWIGYIQYSGSTNYNPSLKSRVTMSVDTSKNQFSLKLSSVTALDTAVYYCARSVNYYGNSFAVGPWGQGTLVTVSS
VL: EIVLTQSPATLSLSPGERATLSCRASQGVSDYLHWYQQKPGQAPRLLIKYASQPATGIPARFSGSGSGTDFTLTISSLEPEDVAVYYCQNGHSFPLTFGQGTKLEIK
notes: as for B1
B8: VH SEQ ID NO 554 / VL SEQ ID NO 350 (antibody, IgG4, V domains shown)
VH: QVQLQESGPGLVKPSDTLSLTCAVSGYSISSDSAWSWIRQFPGKGLEWIGYIQYSGSTNYNPSLKSRVTMSVDTSKNQFSLKLSSVTALDTAVYYCARSVNYYGNSFAVGPWGQGTLVTVSS
VL: EIVLTQSPATLSLSPGERATLSCRASQGISDYLHWYQQKPGQAPRLLIKYTSQPATGIPARFSGSGSGTDFTLTISSLEPEDFAVYYCQNGHSFPLTFGAGTKLELK
notes: as for B1
B9: VH SEQ ID NO 554 / VL SEQ ID NO 454 (antibody, IgG4, V domains shown)
VH: QVQLQESGPGLVKPSDTLSLTCAVSGYSISSDSAWSWIRQFPGKGLEWIGYIQYSGSTNYNPSLKSRVTMSVDTSKNQFSLKLSSVTALDTAVYYCARSVNYYGNSFAVGPWGQGTLVTVSS
VL: EIVLTQSPATLSLSPGERATLSCRASQGVSDYLHWYQQKPGEAPRLLIKYASQPATGIPARFSGSGSGTDFTLTISSLEPEDFAVYYCQNGHSFPLTFGQGTKLEIK
notes: as for B1
B10: VH SEQ ID NO 554 / VL SEQ ID NO 326 (antibody, IgG4, V domains shown)
VH: QVQLQESGPGLVKPSDTLSLTCAVSGYSISSDSAWSWIRQFPGKGLEWIGYIQYSGSTNYNPSLKSRVTMSVDTSKNQFSLKLSSVTALDTAVYYCARSVNYYGNSFAVGPWGQGTLVTVSS
VL: EIVLTQSPATLSLSPGERATLSCRASQGISDYLHWYQQKPGEAPRLLIKYTSQPATGIPARFSGSGSGTDFTLTISSLEPEDFGVYYCQNGHSFPLTFGAGTKLELK
notes: as for B1
B11: VH SEQ ID NO 546 / VL SEQ ID NO 502 (antibody, IgG4, V domains shown)
VH: QVQLQESGPGLVEPSQTLSLTCTVSGYSITSDSAWSWIRQPPGKKLEWIGYIQYSGSTNYNPSLKSRVTISRDTSKNQFSLKLSSVTAADTAVYYCARSVNYYGNSFAVGYWGQGTSVTVSS
VL: EIVLTQSPATLSLSPGERATLSCRASQGVSDYLHWYQQKPGQAPRLLIKYTSQPATGIPARFSGSGSGTDFTLTISSLEPEDFAVYYCQNGHSFPLTFGQGTKLEIK
notes: as for B1
B12: VH SEQ ID NO 554 / VL SEQ ID NO 318 (antibody, IgG4, V domains shown)
VH: QVQLQESGPGLVKPSDTLSLTCAVSGYSISSDSAWSWIRQFPGKGLEWIGYIQYSGSTNYNPSLKSRVTMSVDTSKNQFSLKLSSVTALDTAVYYCARSVNYYGNSFAVGPWGQGTLVTVSS
VL: EIVLTQSPATLSLSPGERATLSCRASQGISDYLHWYQQKPGEAPRLLIKYTSQPATGIPARFSGSGSGTDFTLTISSLEPEDFAVYYCQNGHSFPLTFGQGTKLEIK
notes: as for B1
B13: VH SEQ ID NO 546 / VL SEQ ID NO 462 (antibody, IgG4, V domains shown)
VH: QVQLQESGPGLVEPSQTLSLTCTVSGYSITSDSAWSWIRQPPGKKLEWIGYIQYSGSTNYNPSLKSRVTISRDTSKNQFSLKLSSVTAADTAVYYCARSVNYYGNSFAVGYWGQGTSVTVSS
VL: EIVLTQSPATLSLSPGERATLSCRASQGVSDYLHWYQQKPGQAPRLLIKYASQPATGIPARFSGSGSGTDFTLTISSLEPEDFAVYYCQNGHSFPLTFGAGTKLEIK
notes: as for B1
B14: VH SEQ ID NO 554 / VL SEQ ID NO 470 (antibody, IgG4, V domains shown)
VH: QVQLQESGPGLVKPSDTLSLTCAVSGYSISSDSAWSWIRQFPGKGLEWIGYIQYSGSTNYNPSLKSRVTMSVDTSKNQFSLKLSSVTALDTAVYYCARSVNYYGNSFAVGPWGQGTLVTVSS
VL: EIVLTQSPATLSLSPGERATLSCRASQGVSDYLHWYQQKPGQAPRLLIKYASQPATGIPARFSGSGSGTDFTLTISSLEPEDFAVYYCQNGHSFPLTFGQGTKLEIK
notes: as for B1
B15: VH SEQ ID NO 554 / VL SEQ ID NO 382 (antibody, IgG4, V domains shown)
VH: QVQLQESGPGLVKPSDTLSLTCAVSGYSISSDSAWSWIRQFPGKGLEWIGYIQYSGSTNYNPSLKSRVTMSVDTSKNQFSLKLSSVTALDTAVYYCARSVNYYGNSFAVGPWGQGTLVTVSS
VL: EIVLTQSPATLSLSPGERATLSCRASQGLSDYLHWYQQKPGEAPRLLIKYASQPATGIPARFSGSGSGTDFTLTISSLEPEDFAVYYCQNGHSFPLTFGQGTKLEIK
notes: as for B1
B16: VH SEQ ID NO 546 / VL SEQ ID NO 494 (antibody, IgG4, V domains shown)
VH: QVQLQESGPGLVEPSQTLSLTCTVSGYSITSDSAWSWIRQPPGKKLEWIGYIQYSGSTNYNPSLKSRVTISRDTSKNQFSLKLSSVTAADTAVYYCARSVNYYGNSFAVGYWGQGTSVTVSS
VL: EIVLTQSPATLSLSPGERATLSCRASQGVSDYLHWYQQKPGQAPRLLIKYASQPATGIPARFSGSGSGTDFTLTISSLEPEDVAVYYCQNGHSFPLTFGQGTKLEIK
notes: as for B1
B17: VH SEQ ID NO 546 / VL SEQ ID NO 486 (antibody, IgG4, V domains shown)
VH: QVQLQESGPGLVEPSQTLSLTCTVSGYSITSDSAWSWIRQPPGKKLEWIGYIQYSGSTNYNPSLKSRVTISRDTSKNQFSLKLSSVTAADTAVYYCARSVNYYGNSFAVGYWGQGTSVTVSS
VL: EIVLTQSPATLSLSPGERATLSCRASQGVSDYLHWYQQKPGQAPRLLIKYASQPATGIPARFSGSGSGTDFTLTISSLEPEDFGVYYCQNGHSFPLTFGQGTKLEIK
notes: as for B1
B18: VH SEQ ID NO 554 / VL SEQ ID NO 462 (antibody, IgG4, V domains shown)
VH: QVQLQESGPGLVKPSDTLSLTCAVSGYSISSDSAWSWIRQFPGKGLEWIGYIQYSGSTNYNPSLKSRVTMSVDTSKNQFSLKLSSVTALDTAVYYCARSVNYYGNSFAVGPWGQGTLVTVSS
VL: EIVLTQSPATLSLSPGERATLSCRASQGVSDYLHWYQQKPGQAPRLLIKYASQPATGIPARFSGSGSGTDFTLTISSLEPEDFAVYYCQNGHSFPLTFGAGTKLEIK
notes: as for B1
B19: VH SEQ ID NO 554 / VL SEQ ID NO 478 (antibody, IgG4, V domains shown)
VH: QVQLQESGPGLVKPSDTLSLTCAVSGYSISSDSAWSWIRQFPGKGLEWIGYIQYSGSTNYNPSLKSRVTMSVDTSKNQFSLKLSSVTALDTAVYYCARSVNYYGNSFAVGPWGQGTLVTVSS
VL: EIVLTQSPATLSLSPGERATLSCRASQGVSDYLHWYQQKPGQAPRLLIKYASQPATGIPARFSGSGSGTDFTLTISSLEPEDFAVYYCQQGHSFPLTFGQGTKLEIK
notes: as for B1
B20: VH SEQ ID NO 546 / VL SEQ ID NO 478 (antibody, IgG4, V domains shown)
VH: QVQLQESGPGLVEPSQTLSLTCTVSGYSITSDSAWSWIRQPPGKKLEWIGYIQYSGSTNYNPSLKSRVTISRDTSKNQFSLKLSSVTAADTAVYYCARSVNYYGNSFAVGYWGQGTSVTVSS
VL: EIVLTQSPATLSLSPGERATLSCRASQGVSDYLHWYQQKPGQAPRLLIKYASQPATGIPARFSGSGSGTDFTLTISSLEPEDFAVYYCQQGHSFPLTFGQGTKLEIK
notes: as for B1

The test concerns the target T1, recombinant human activated Factor VII …. Kind of test: BLI (Fortebio).
As to B1, the Kd – broadly, the concentration at which binding is half-saturated – is 1.1 nM. In the case of B2, the Kd turned out to be 1.2 nM.

For the molecule B3, the Kd came to 16 nM. B4: the Kd was found to be 18 nM. Consider B5, for which the Kd came out at 23 nM. The figure for B6 is 19 nM; for B7 it is 22 nM; for B8 it is 19 nM. Then B9, with 19 nM. B10: the Kd was found to be 14 nM. For B11, the Kd turned out to be 1.1 nM. For the molecule B12, the Kd is 15 nM. The figure for B13 is 1.1 nM; for B14 it is 19 nM. The figure for B15 is 21 nM.

On to B16, for which the Kd came out at 1.2 nM.

With B17, the Kd is 1.1 nM.

In the case of B18, the Kd was determined as 20 nM. Consider B19, for which the Kd was 21 nM. B20: the Kd turned out to be 2 nM.
